Like-named read-outs stand apart in the source and are kept apart here.
How the values were obtained:
[1] = biological target: Actin (rabbit skeletal muscle alpha actin), polymerized (F-actin) (rabbit) (UniProt P68135); assay: co-sedimentation
[2] = biological target: Actin (rabbit skeletal muscle alpha actin), polymerized (F-actin) (rabbit) (UniProt P68135); assay: co-sedimentation; remark: listed apart in the source

Substance	co-sedimented talin fragment relative to talin-FL (relative to talin-FL) [1]	co-sedimented talin fragment relative to talin-FL (relative to talin-FL) [2]
talin N-R11 (C-terminal truncation lacking R12 and the C-terminus), P26039 1-2141	1.3	1.1
talin R1-C (truncation lacking the FERM domain), P26039 482-2541	1.1	1.3
talin N-R12 (C-terminal truncation), P26039 1-2294	0.68	

Reference: paper PMC6856716
